Results as given in patent US11685791B2, “Antibody binding specifically to N-terminal region of lysyl-tRNA synthetase exposed on cell membrane” (Zymedi Co., Ltd., priority 2017, dated 2023).

Columns and labels:
A549 cells = test: MTT cytotoxicity assay; type: cell-based, human; settings: 0, 50, 100, 500 nM, 24 h, serum-free media
Experimental: MTT assay was performed on N3 IgG as a representative. A549 cells were seeded in 96-well plates (5,000 cell/well) and incubated. The cells were washed with serum-free media, and then treated with human mock IgG and N3 IgG of 0, 50, 100, 500 nM (in serum-free media). After 24-h incubation, MTT solution was added with 50 μg/well, followed by incubation for 4 h. After MTT solution was removed, the wells were treated with 100 ul of DMSO, and then the absorbance was measured at 570 nm.

[1] = test system: mouse breast cancer 4T-1 cells; test: In-vivo cancer metastasis model (lung metastasis)
Experimental: Since KRS can accelerate cell migration through 67LR associated with cancer metastasis, tumor (cancer) animal models were constructed using mouse breast cancer 4T-1 cells (Korean Cell Line Bank), which are well metastasizable to the lung. Orthotopic breast cancer animal models were constructed by injecting 4×10^4 4 T1 cells into the fat pad of six 7-week old BALB/cAnCr mice (Doo Yeol Biotech).
The cancer was injected into the mammary fat pad, and after 10 days (Day 10), cancer tissues were resected from the fat pad. After one day (Day 11), N3 IgG (10 mg/kg) was administered twice a week for two weeks at intervals of 3 days (a total of four times, Days 11, 14, 18, and 21) via tail vein i.v. injection, and the same dose of control mock IgG (Thermo #31154) was also administered. One week after the completion of the entire antibody dosing schedule, that is, 28 days after cancer injection, the mice were sacrificed to take lung tissue. Upon autopsy of lung tissue, the lung was inflated by injection of a saline solution into the bronchus through a syringe, collected, and then stored in Bouin's solution (Sigma #HT10132) for 24 h. Thereafter, the metastasis nodules in each lobe of the lung were counted through a microscope.
It has been known in the foregoing literature “Dae Gyu Kim et al., (2014)” that the YH16899 compound has an effect on cancer metastasis inhibition by suppressing the interaction between 67LR and KRS. Then, the cancer metastasis inhibitory effect was compared between YH16899 and N3 IgG, the antibody of the present invention. The construction of in-vivo tumor models and the observation of lung metastasis condition were carried out by the same method as in Example <3-3>. YH16899 was orally administered at 100 mpk every day. N3 IgG was intravenously injected at difference concentrations (1 mpk, 10 mpk) through mouse tails.

[2] = test system: mouse KRS N-terminal peptide fragments (mF1-mF5); test: SPR (Biacore T200) of immobilized N3 IgG against mouse KRS N-terminal peptide fragments; type: binding
Experimental: In the same manner as the experimental method described in Example 4-1 above, N3 IgG antibody was immobilized on the chip by using an amine coupling kit (GE Healthcare). Then, the peptides shown in Table 4 above dissolved in PBS solution at corresponding concentrations were allowed to flow for 60 s, and PBS was allowed to flow for 5 min. Then, the binding ability was analyzed by Biacore T200 Evaluation software v2.0 (GE Healthcare).

B1: N3 IgG: IgG converted from N3 scFv; VH SEQ ID NO: 49, VL SEQ ID NO: 51; binds KRS N-terminal region (antibody, V domains shown)
VH: EVQLLESGGGLVQPGGSLRLSCAASGFTFSSYDMSWVRQAPGKGLEWVSAISYDNGNTYYADSVKGRFTISRDNSKNTLYLQMNSLRAEDTAVYYSARMALDFDYWGQGTLVTVSS
VL: QSVLTQPPSASGTPGQRVTISCTGSSSNIGSNYVTWYQQLPGTAPKLLIYDNSNRPSGVPDRFSGSKSGTSASLAISGLRSEDEADYYCASWDDSLSAYVFGGGTKLTVL
cytotoxicity (MTT assay) (A549 cells): no cytotoxicity | lung metastasis nodules ([1]; 10 mg/kg i.v. twice a week for two weeks, vs mock IgG control): significantly suppressed | laminin receptor expression in metastasis nodule sites of lung tissue ([1]; 10 mg/kg i.v., control vs N3 IgG treatment group): significantly large amount of laminin receptors were expressed in the metastasis nodule sites in control compared with the group treated with the antibody | lung nodule count ([1]; 1 mpk and 10 mpk i.v.): significantly reduced in a dose-dependent manner | cancer metastasis inhibition compared with YH16899 (100 mpk) ([1]; 1 mpk i.v.): significantly inhibited cancer metastasis compared with YH16899 | relative binding ability, epitope F3 vs F1 (mouse) [2]: stronger binding ability to epitope F3 than F1 | binding to mouse KRS N-terminal epitopes F1-F5 (SPR) ([2]; F2 and F4 data not shown): bound to epitopes F1, F2, F3, and F4 of human (h), mouse (m), and rat (r) but not epitope F5
